Test results reported in publication PMC8280134.

Biological target: GII.4 P-domain (crystallisation construct) (human norovirus GII.4)
Test: crystal structure; P-domain and Fab mixed 1:1.5, complex isolated by gel filtration; crystals in 0.1 M BIS-TRIS propane pH 8.5, 0.2 M KSCN, 20% w/v PEG 3350, 20 °C

GII.4 P-domain (crystallisation construct) (domain or fragment)
stoichiometry N: 2
